Numbering of substitutions follows the chain as printed. Names and notes keep the numbering of the source. Blank lines part the entries; values can stand above or below the molecule they belong to.
Target: E2F1-SB, DP1 (E2F1 fragment with C-terminal Small BiT, co-expressed with Dp-1) (human) (UniProt Q01094)
Assay: NanoBiT split-luciferase complementation, cells stably expressing E2F1-SB and Dp-1; relative to WT LB-Rb

Chain of E2F1-SB, DP1 (E2F1 fragment with C-terminal Small BiT, co-expressed with Dp-1) (human) (Q01094 whole entry, chain 1 of 2, the tested form may be a part): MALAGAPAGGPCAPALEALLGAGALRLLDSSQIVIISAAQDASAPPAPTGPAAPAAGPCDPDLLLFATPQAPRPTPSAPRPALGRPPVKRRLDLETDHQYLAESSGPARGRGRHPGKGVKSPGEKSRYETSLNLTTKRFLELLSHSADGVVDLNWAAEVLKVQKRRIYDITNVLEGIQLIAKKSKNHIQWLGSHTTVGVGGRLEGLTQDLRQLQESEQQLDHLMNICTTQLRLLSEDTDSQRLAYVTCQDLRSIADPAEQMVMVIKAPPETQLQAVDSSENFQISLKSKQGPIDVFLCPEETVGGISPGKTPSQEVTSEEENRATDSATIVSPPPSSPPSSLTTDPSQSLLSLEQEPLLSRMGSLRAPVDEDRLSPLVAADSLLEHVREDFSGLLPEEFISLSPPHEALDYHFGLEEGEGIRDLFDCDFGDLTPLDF
Chain of E2F1-SB, DP1 (E2F1 fragment with C-terminal Small BiT, co-expressed with Dp-1) (human) (Q14186 whole entry, chain 2 of 2, further chain, the tested form may be a part): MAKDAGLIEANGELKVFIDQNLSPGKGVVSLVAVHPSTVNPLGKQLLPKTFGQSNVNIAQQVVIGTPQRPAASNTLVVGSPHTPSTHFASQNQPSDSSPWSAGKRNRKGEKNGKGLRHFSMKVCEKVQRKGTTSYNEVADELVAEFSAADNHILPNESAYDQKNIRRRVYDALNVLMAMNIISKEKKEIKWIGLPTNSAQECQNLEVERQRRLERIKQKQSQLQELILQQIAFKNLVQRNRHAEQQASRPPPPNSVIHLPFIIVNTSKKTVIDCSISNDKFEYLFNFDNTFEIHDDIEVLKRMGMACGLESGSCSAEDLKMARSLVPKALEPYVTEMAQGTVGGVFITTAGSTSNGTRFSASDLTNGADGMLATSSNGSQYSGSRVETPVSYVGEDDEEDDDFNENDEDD

Molecule: LB-Rb (379-928) I703del35, in-frame deletion mutant (from UniProt P06400 379-702; P06400 738-928)
% (/wt) luciferase activity: 8.6 % (/wt)

Molecule: LB-Rb (379-928) R661del1, out-of-frame deletion mutant (from UniProt P06400 379-660)
% (/wt) luciferase activity: 0.8 % (/wt)

B1: LB-Rb (379-928) A488V (protein, part only; not given: Large BiT luciferase tag, human, UniProt P06400 379-928, looked up, part only)
chain, part: MNTIQQLMMILNSASDQPSENLISYFNNCTVNPKESILKRVKDIGYIFKEKFAKAVGQGCVEIGSQRYKLGVRLYYRVMESMLKSEEERLSIQNFSKLLNDNIFHMSLLVCALEVVMATYSRSTSQNLDSGTDLSFPWILNVLNLKAFDFYKVIESFIKAEGNLTREMIKHLERCEHRIMESLAWLSDSPLFDLIKQSKDREGPTDHLESACPLNLPLQNNHTAADMYLSPVRSPKKKGSTTRVNSTANAETQATSAFQTQKPLKSTSLSLFYKKVYRLAYLRLNTLCERLLSEHPELEHIIWTLFQHTLQNEYELMRDRHLDQIMMCSMYGICKVKNIDLKFKIIVTAYKDLPHAVQETFKRVLIKEEEYDSIIVFYNSVFMQRLKTNILQYASTRPPTLSPIPHIPRSPYKFPSSPLRIPGGNIYISPLKSPYKISEGLPTPTKMTPRSRILVSIGESFGTSEKFQKINQMVCNSDRVLKRSAEGSNPPKPLKKLRFDIEGSDEADGSKHLPGESKFQQKLAEMTSTRTRMQKQKMNDSMDTSNKEEK
% (/wt) luciferase activity: 51 % (/wt)

B2: LB-Rb (379-928) R656W (protein, part only; not given: Large BiT luciferase tag, human, UniProt P06400 379-928, looked up, part only)
chain, part: B1 chain, part with V110A, R278W
% (/wt) luciferase activity: 79 % (/wt)

B5: LB-Rb (379-928) C706F (protein, part only; not given: Large BiT luciferase tag, human, UniProt P06400 379-928, looked up, part only)
chain, part: B1 chain, part with V110A, C328F
% (/wt) luciferase activity: 5.5 % (/wt)

B6: LB-Rb (379-928) R661W (protein, part only; not given: Large BiT luciferase tag, human, UniProt P06400 379-928, looked up, part only)
chain, part: B1 chain, part with V110A, R283W
% (/wt) luciferase activity: 5.2 % (/wt)

B7: LB-Rb (379-928) L665R (protein, part only; not given: Large BiT luciferase tag, human, UniProt P06400 379-928, looked up, part only)
chain, part: B1 chain, part with V110A, L287R
% (/wt) luciferase activity: 5 % (/wt)

B8: LB-Rb (379-928) E440K (protein, part only; not given: Large BiT luciferase tag, human, UniProt P06400 379-928, looked up, part only)
chain, part: B1 chain, part with E62K, V110A
% (/wt) luciferase activity: 47 % (/wt)

B10: LB-Rb (379-928) R621S (protein, part only; not given: Large BiT luciferase tag, human, UniProt P06400 379-928, looked up, part only)
chain, part: B1 chain, part with V110A, R243S
% (/wt) luciferase activity: 124 % (/wt)

B11: LB-Rb (379-928) I724N (protein, part only; not given: Large BiT luciferase tag, human, UniProt P06400 379-928, looked up, part only)
chain, part: B1 chain, part with V110A, I346N
% (/wt) luciferase activity: 7.4 % (/wt)

The remaining lines, values ahead:

% (/wt) luciferase activity: 120 % (/wt)
Molecule: LB-Rb (379-928) R798W (from UniProt P06400 379-928)

% (/wt) luciferase activity: 132 % (/wt)
B3: LB-Rb (379-928) V654M (protein, part only; not given: Large BiT luciferase tag, human, UniProt P06400 379-928, looked up, part only)
chain, part: B1 chain, part with V110A, V276M

% (/wt) luciferase activity: 92 % (/wt)
B4: LB-Rb (379-928) R798Q (protein, part only; not given: Large BiT luciferase tag, human, UniProt P06400 379-928, looked up, part only)
chain, part: B1 chain, part with V110A, R420Q

% (/wt) luciferase activity: 6.4 % (/wt)
B9: LB-Rb (379-928) R698W (protein, part only; not given: Large BiT luciferase tag, human, UniProt P06400 379-928, looked up, part only)
chain, part: B1 chain, part with V110A, R320W

— patent publication US20220073935A1
